From the RNAGym collection of RNA variant scans (doi:10.1073/pnas.2313332121)

B1: TPR t1 (parent)
chain: GACCAAUCUGCCCUCAGAGCUCGAGAACAUCUUCGGAUGCAGAGGAGGCAGGCUUCGGUGGCGCGAUAGCGCCAACGUCCUCAACCUCCAAUGCAUCCCACCACAUGAUGAUGCCUGAAGAGCCUUGGUUUUUUG

Variants of: B1
Test: polymerase ribozyme fitness, log enrichment relative to wild type (log ratio); higher = more active; in vitro selection for triplet polymerase activity
Procedure, shortened: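 A single round of triplicate in vitro selection, including frozen incubation at −7 °C, was applied to PCR-built, transcribed mutant libraries of each subunit of a heterodimeric triplet polymerase ribozyme. Illumina sequencing of input and output libraries retained genotypes with ≥10 input reads and ≥1 read per output. Fitness is the base-2 logarithm of genotype enrichment divided by wild-type enrichment, from inverse-variance-weighted replicate averages.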

Variant	polymerase ribozyme fitness (log ratio)
GACCAAUCUGCCCUCAGAGCUCGAGAACAUCUUCGGAUGCAGAGGAGGCAGGCUUCGGUGGCGCGAUAGCGUCAACGUCCUCAACCUCCAAUGCAUCCCACCACAUGAUGAUGCCUGUAGAGCCUUGGUUUUUUG [C72U A118U]	0.0221
GACCAAUCUGCCCUCAGAGCUCGAGAACAUCUUCGGAUGCAGAGGAGGCAGGCUUCGGUGGCGCGAUAGCGGCAACGUCCUCAACCUCCAAUGCAUCCCACCACAGGAUUAUGCCUGAAGUGCCUAAGUUUUUUG [C72G U106G G110U A121U U126A G127A]	-5.78
GACCAAUCUGCCCUCAGAGCUCGAGAACAUCUUCGGAUGCAGAGGAGGCAGGCUUCGGUGGCGCGAUAGCGGCAACGUCCUCAACCUCCAAUGCAUCCCACCACAAGAUGAUGCCUGAAGAGCCUUGGAUUUUUG [C72G U106A U129A]	-1.25
GACCAAUCUGCCCUCAGAGCUCGAGAACAUCUUCGGAUGCAGAGGAGGCAGGCUUCGGUGGCGCGAUAGCGGCAACGUCCUCAACCCCCAAUACAUCCCACCAGAUGAUGAUGCCUGAAGAGGCUUGGUUUUUUG [C72G U87C G93A C104G C123G]	-6.53
GACCAAUCUGCCCUCAGAGCUCGAGAACAUCUUCGGAUGCAGAGGAGGCAGGCUUCGGUGGCGCGAUAGCGUCAACGUCCUCAACCUCCAAUGCAUCCCACCACAUGAUGAUGCCUGAGGAGCCUUGGUUUUUUG [C72U A119G]	0.547
GACCAAUCUGCCCUCAGAGCUCGAGAACAUCUUCGGAUGCAGAGGAGGCAGGCUUCGGUGGCGCGAUAGCGUCAACGUCCUCAACCUCCAAUGCAUCCCACCACAUGAUGAUGCCUGAAGCGCCUUGGUUUUUUG [C72U A121C]	1.6
GACCAAUCUGCCCUCAGAGCUCGAGAACAUCUUCGGAUGCAGAGGAGGCAGGCUUCGGUGGCGCGAUAGCGGCAACGUCCCCAACCUCCAAUGCAUCCCACCACAUGAUGAUGCCUGAAGAGCCUUGGUUUUUUG [C72G U81C]	-1.12
GACCAAUCUGCCCUCAGAGCUCGAGAACAUCUUCGGAUGCAGAGGAGGCAGGCUUCGGUGGCGCGAUAGCGGCAACGUCCACAACCUCCAAUGCAUCCCACCACAUGAUGAUGCCUGAAGAGCCUUGGUUUUUUG [C72G U81A]	-2.98
GACCAAUCUGCCCUCAGAGCUCGAGAACAUCUUCGGAUGCAGAGGAGGCAGGCUUCGGUGGCGCGAUAGCGGCAACGUCCUCAACCUCCAAUGCAUCCCACCACAUGAUGAUGCCUGAAGAGCCUUGGUAUUUUG [C72G U130A]	-0.458
GACCAAUCUGCCCUCAGAGCUCGAGAACAUCUUCGGAUGCAGAGGAGGCAGGCUUCGGUGGCGCGAUAGCGGCAACGUCCUCAACCUCCAAUGCAUCCCACCACAUGAUGAUGCCUGAAGAGCCUUGGCAUUUUG [C72G U129C U130A]	-1.89
GACCAAUCUGCCCUCAGAGCUCGAGAACAUCUUCGGAUGCAGAGGAGGCAGGCUUCGGUGGCGCGAUAGCGUCAACGUCCUCAACCUCCAAUGCAUCCCACCUCAUGAUGAUGCCUGAAGAGCCUUGGUUUUUUG [C72U A103U]	-5.16
GACCAAUCUGCCCUCAGAGCUCGAGAACAUCUUCGGAUGCAGAGGAGGCAGGCUUCGGUGGCGCGAUAGCGUCAACGUCCUCCACCUCCAAUGCAUCCCACCACAUGAUGAUGUCUGAAGAGCCUUGGUUUUUUG [C72U A83C C114U]	-1.96
GACCAAUCUGCCCUCAGAGCUCGAGAACAUCUUCGGAUGCAGAGGAGGCAGGCUUCGGUGGCGCGAUAGCGGCAACGUCCCCAACCCCCAAUGCAUCCCUCCACAUGAUGAUGCCUGAAGAGCCUUGGUUUUUUG [C72G U81C U87C A100U]	-2.07
GACCAAUCUGCCCUCAGAGCUCGAGAACAUCUUCGGAUGCAGAGGAGGCAGGCUUCGGUGGCGCGAUAGCGUCAACGUCCUCAACCUCCAAUGCAUCCCACCACAUGAUGAUGCCUGAAGCGCCUUGGUUCUUUG [C72U A121C U131C]	0.346
GACCAAUCUGCCCUCAGAGCUCGAGAACAUCUUCGGAUGCAGAGGAGGCAGGCUUCGGUGGCGCGAUAGCGUCAACGUCCUCACCCUCCAAUGCAUCCCACCACAUGAUGAUGCCUGAAGAGCUUUGGUUUUUUG [C72U A84C C124U]	1.07
GACCAAUCUGCCCUCAGAGCUCGAGAACAUCUUCGGAUGCAGAGGAGGCAGGCUUCGGUGGCGCGAUAGCGUCAACGUCCUCAGCCUCCAAUGCAUCCCACCACAUGAUGAUGCCUGAAGAGCCUUGGUUUUUUG [C72U A84G]	-1.74
GACCAAUCUGCCCUCAGAGCUCGAGAACAUCUUCGGAUGCAGAGGAGGCAGGCUUCGGUGGCGCGAUAGCGUCAACGUCCUCACCCUCCAAUGCAUCCCACCACAUGAUGAUGCCUGAAGAGCCUUGGUUUUUUG [C72U A84C]	0.0877
GACCAAUCUGCCCUCAGAGCUCGAGAACAUCUUCGGAUGCAGAGGAGGCAGGCUUCGGUGGCGCGAUAGCGUCAACGUCCUCAACCUCCAGUGCAUCCCACCACAUGAUGAUGCCUGAAGAGCCUUGGUUUUUUG [C72U A91G]	-1.21
GACCAAUCUGCCCUCAGAGCUCGAGAACAUCUUCGGAUGCAGAGGAGGCAGGCUUCGGUGGCGCGAUAGCGGCAACGUCCCCAACCUCCAAUGCAUCCCACCAGAUGAUGAUGCUUGAAGAGCCUUGGUUUUAUG [C72G U81C C104G C115U U133A]	-6.64
GACCAAUCUGCCCUCAGAGCUCGAGAACAUCUUCGGAUGCAGAGGAGGCAGGCUUCGGUGGCGCGAUAGCGUCAACGUCCUCAACCUCCAAUGCAUCCCACCACAUGAUGCUGCCUGAAGUGCCUUGAUUUUUUG [C72U A111C A121U G128A]	-1.12
GACCAAUCUGCCCUCAGAGCUCGAGAACAUCUUCGGAUGCAGAGGAGGCAGGCUUCGGUGGCGCGAUAGCGGCAACGUCCUCAACCUCCAAUGCAUCCCACCACAGGAUGAUGCCUGAAGAGCCUUGGUUUUUUG [C72G U106G]	-1.97

Variant	polymerase ribozyme fitness (log ratio)
GACCAAUCUGCCCUCAGAGCUCGAGAACAUCUUCGGAUGCAGAGGAGGCAGGCUUCGGUGGCGCGAUAGCGGCAACGUCCUCAACCUCCAAUGCAUCCCACCACACGAUGAUGCCUGAAGAGCCUUGGUUUUUUG [C72G U106C]	-0.865
GACCAAUCUGCCCUCAGAGCUCGAGAACAUCUUCGGAUGCAGAGGAGGCAGGCUUCGGUGGCGCGAUAGCGUCAACGUCCUCAACCUCCAAUGCAUCCCUCCACAUGGUGAUGCCUGAAGAGCCUUGGUUUUUUG [C72U A100U A108G]	-1.87
GACCAAUCUGCCCUCAGAGCUCGAGAACAUCUUCGGAUGCAGAGGAGGCAGGCUUCGGUGGCGCGAUAGCGUCAACGUCCUCGAUCUCCAAUGCAUCCCACCACAUGAUGAUGCCUGAAGAGCCUUGGUUUUUUG [C72U A83G C85U]	-1.39
GACCAAUCUGCCCUCAGAGCUCGAGAACAUCUUCGGAUGCAGAGGAGGCAGGCUUCGGUGGCGCGAUAGCGGCAACGUCCUCAACCUCCAACGAAUCCCACCACAUGAUGAUGCCUGAAGAGCCUUGGUUUUUUG [C72G U92C C94A]	-3.47
GACCAAUCUGCCCUCAGAGCUCGAGAACAUCUUCGGAUGCAGAGGAGGCAGGCUUCGGUGGCGCGAUAGCGGCAACGUCCUCAACCUCCAAUGCAUCCCACCACAUGAGGAUGCCUGAAGAGCCGUGGUUUUUUG [C72G U109G U125G]	-4.97
GACCAAUCUGCCCUCAGAGCUCGAGAACAUCUUCGGAUGCAGAGGAGGCAGGCUUCGGUGGCGCGAUAGCGUCAACGUCCUCAACCUCCAAUGCAUCCCACCACUUGAUGAUGCCUGAAGAGCCUUGGUUCAUUG [C72U A105U U131C U132A]	-2.36
GACCAAUCUGCCCUCAGAGCUCGAGAACAUCUUCGGAUGCAGAGGAGGCAGGCUUCGGUGGCGCGAUAGCGGCAACGUCCUCAACCUCCAAUGCAUCCCACCACAUGAUGACGCCUGAAGAGCCUUGGUUUUUUG [C72G U112C]	1.51
GACCAAUCUGCCCUCAGAGCUCGAGAACAUCUUCGGAUGCAGAGGAGGCAGGCUUCGGUGGCGCGAUAGCGGCAACGUCCUCAACCUCCAAUGCAUCCCACCACAUGAUGAAGCCUGAAGAGCCUUGGUUUUUUG [C72G U112A]	0.104
GACCAAUCUGCCCUCAGAGCUCGAGAACAUCUUCGGAUGCAGAGGAGGCAGGCUUCGGUGGCGCGAUAGCGGCAACGUCCUCAACCUCCAAUGCAUCCCACCACAUGAUGAGGCCUGAAGAGCCUUGGUUUUUUG [C72G U112G]	-0.196
GACCAAUCUGCCCUCAGAGCUCGAGAACAUCUUCGGAUGCAGAGGAGGCAGGCUUCGGUGGCGCGAUAGCGGCAACGUCCUCAACCUCCAAUGCAUCCCACCACAUGAUGAUGCCUGAAGAGCCAUGGUUUUCUG [C72G U125A U133C]	-0.433
GACCAAUCUGCCCUCAGAGCUCGAGAACAUCUUCGGAUGCAGAGGAGGCAGGCUUCGGUGGCGCGAUAGCGUCAACGUCCUCUACCUCCGAUGCAUCCCACCACAUGAUGAUGGCUGAAGAGCCUUGGUUUUUUG [C72U A83U A90G C114G]	-1.45
GACCAAUCUGCCCUCAGAGCUCGAGAACAUCUUCGGAUGCAGAGGAGGCAGGCUUCGGUGGCGCGAUAGCGUCAACGUCCUCAACCUCCAAUGCAUCCCACCUCAUGAUGAUGCCUGAAGAGCCGUGGUUUUUUG [C72U A103U U125G]	-6.8
GACCAAUCUGCCCUCAGAGCUCGAGAACAUCUUCGGAUGCAGAGGAGGCAGGCUUCGGUGGCGCGAUAGCGUCUACGUCCUCAACCUCCAAUGCAUCCCACCACAUGAUGAUGCCUGAAGAGCCUUGGUUUUUUG [C72U A74U]	-1.23
GACCAAUCUGCCCUCAGAGCUCGAGAACAUCUUCGGAUGCAGAGGAGGCAGGCUUCGGUGGCGCGAUAGCGGCAACGUCCUCAACCUCCAAUGCAUCCCACCACAUGAUGAUGCCUGAAGAGCCAUGAUUUUAUG [C72G U125A G128A U133A]	-3.47
GACCAAUCUGCCCUCAGAGCUCGAGAACAUCUUCGGAUGCAGAGGAGGCAGGCUUCGGUGGCGCGAUAGCGGCAACGUCCUCAACCCCCAAUGCAUCCUACCACAUGAUGAUGCGUGAAGAGCCUUGGUUUUUUG [C72G U87C C99U C115G]	-5.69
GACCAAUCUGCCCUCAGAGCUCGAGAACAUCUUCGGAUGCAGAGGAGGCAGGCUUCGGUGGCGCGAUAGCGUCAACGUCCUCAACCUCCAAUGCAUCCCCCCACAUGAUGAUGCCUGAAGAGCCUUGGUUUUUUG [C72U A100C]	-1.3
GACCAAUCUGCCCUCAGAGCUCGAGAACAUCUUCGGAUGCAGAGGAGGCAGGCUUCGGUGGCGCGAUAGCGUCAACGUCCUCAACCUCCAAUGCAUCCCUCCACAUGAUGAUGCCUGAAGAGCCUUGGUUUUUUG [C72U A100U]	-0.925
GACCAAUCUGCCCUCAGAGCUCGAGAACAUCUUCGGAUGCAGAGGAGGCAGGCUUCGGUGGCGCGAUAGCGUCAACGUCCUCAUUCUCCAAUGCAUCCCACCAUAUGAUGAUGCCUGAAGAGCCUUGGUUUUUUG [C72U A84U C85U C104U]	-0.48
GACCAAUCUGCCCUCAGAGCUCGAGAACAUCUUCGGAUGCAGAGGAGGCAGGCUUCGGUGGCGCGAUAGCGUCAACGUCCUCAACCUCCAAUGCAUCCCACCACAUGAUGCUGCCUGAAGAGCCUUGGUUUUUUG [C72U A111C]	0.581
GACCAAUCUGCCCUCAGAGCUCGAGAACAUCUUCGGAUGCAGAGGAGGCAGGCUUCGGUGGCGCGAUAGCGGCAACGUCCUCAACCUCCAAAGCAUCCCACCACAUGAUGAUGCCUGUAGAGCCUUGGUUCUUUG [C72G U92A A118U U131C]	-3.98
GACCAAUCUGCCCUCAGAGCUCGAGAACAUCUUCGGAUGCAGAGGAGGCAGGCUUCGGUGGCGCGAUAGCGUCAACGUCCUCAACCUCCAAUGCAUCCCACCACAUGAUGAUGCCUGUAUAGCCUUGGUUUUUUG [C72U A118U G120U]	-0.322
